The target of the experiment is recombinant Fc-tagged extracellular domain of LILRB3 (LILRB3-ECD) (human, UniProt O75022 24-443, glycosylated (production from mammalian NS0 cells)). In words: BLI. In general terms: In BLI a coated tip is dipped into the sample, and binding shifts an interference pattern.
recombinant Fc-tagged extracellular domain of LILRB3 (LILRB3-ECD), sequence (O75022 24-443): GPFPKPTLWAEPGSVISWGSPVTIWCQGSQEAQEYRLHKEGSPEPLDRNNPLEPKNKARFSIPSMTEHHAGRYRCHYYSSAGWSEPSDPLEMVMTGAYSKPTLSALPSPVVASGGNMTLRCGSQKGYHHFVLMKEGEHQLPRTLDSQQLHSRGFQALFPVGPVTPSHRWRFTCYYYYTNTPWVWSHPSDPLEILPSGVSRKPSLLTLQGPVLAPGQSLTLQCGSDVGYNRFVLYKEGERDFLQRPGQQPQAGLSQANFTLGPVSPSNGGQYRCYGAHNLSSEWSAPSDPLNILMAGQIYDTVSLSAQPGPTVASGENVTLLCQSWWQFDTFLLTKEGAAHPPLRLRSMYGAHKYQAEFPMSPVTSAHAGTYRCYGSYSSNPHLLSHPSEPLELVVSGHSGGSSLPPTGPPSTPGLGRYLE

B1: recombinant human galectin-4 (Galectin-4-His) (natural protein, UniProt P56470 1-323, looked up)
chain: MAYVPAPGYQPTYNPTLPYYQPIPGGLNVGMSVYIQGVASEHMKRFFVNFVVGQDPGSDVAFHFNPRFDGWDKVVFNTLQGGKWGSEERKRSMPFKKGAAFELVFIVLAEHYKVVVNGNPFYEYGHRLPLQMVTHLQVDGDLQLQSINFIGGQPLRPQGPPMMPPYPGPGHCHQQLNSLPTMEGPPTFNPPVPYFGRLQGGLTARRTIIIKGYVPPTGKSFAINFKVGSSGDIALHINPRMGNGTVVRNSLLNGSWGSEEKKITHNPFGPGQFFDLSIRCGLDRFKVYANGQHLFDFAHRLSAFQRVDTLEIQGDVTLSYVQI
Regarding B1, the Kd – broadly, the constant that tells how readily two partners part at equilibrium – is 44 nM.

The record behind these values is publication PMC10932818 (Cancer immunology research, 2024).
